# Test results taken from US20190153459A1, “RECOMBINANT POLYNUCLEOTIDE INVOLVED IN LACTONE SYNTHESIS AND PROCESS FOR SYNTHESIS OF LACTONES THEREOF” (Council of Scientific & Industrial Research, priority 2016, published 2019).
# T1: MiEH2 (Mangifera indica, UniProt A0A1U9ZCB5)
# T1 sequence (A0A1U9ZCB5 1-318): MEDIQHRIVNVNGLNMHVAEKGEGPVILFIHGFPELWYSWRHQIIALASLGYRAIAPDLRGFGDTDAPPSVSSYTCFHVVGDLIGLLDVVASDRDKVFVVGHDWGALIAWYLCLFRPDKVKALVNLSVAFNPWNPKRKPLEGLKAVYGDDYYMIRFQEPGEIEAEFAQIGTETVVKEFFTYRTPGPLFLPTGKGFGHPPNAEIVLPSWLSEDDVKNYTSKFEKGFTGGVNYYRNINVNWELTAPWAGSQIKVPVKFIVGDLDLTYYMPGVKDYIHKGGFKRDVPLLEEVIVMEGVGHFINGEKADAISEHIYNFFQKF
# B1: MiEH2 (Mangifera indica) (protein)
# chain: T1 sequence (A0A1U9ZCB5 1-318)
# B2: MiEH2: recombinant epoxide hydrolase 2 polypeptide of Mangifera indica, 318 amino acids, 6×His tagged (protein, listed as Mangifera indica)
# chain: T1 sequence (A0A1U9ZCB5 1-318)
# modifications: 6xHis tag
# notes: recombinant epoxide hydrolase 2 polypeptide of Mangifera indica, 318 amino acids, 6×His tagged
# B3: SEQ ID No. 1: 957 bp polynucleotide encoding epoxide hydrolase 2, cloned in pBI121 plant expression vector, agroinfiltrated in mango (nucleic acid)
# DNA: ATGGAAGATATACAGCACAGAATTGTGAATGTCAATGGCTTAAACATGCACGTGGCAGAGAAAGGCGAAGGTCCAGTCATTCTCTTCATTCACGGTTTTCCCGAACTGTGGTACTCCTGGCGGCATCAGATCATCGCCTTGGCTTCCCTCGGCTACCGAGCCATTGCTCCGGATCTACGTGGCTTCGGTGATACTGACGCGCCGCCGTCTGTCTCGAGTTACACGTGTTTCCACGTGGTGGGGGACCTCATTGGACTTCTCGACGTCGTTGCCTCTGATCGGGATAAGGTTTTCGTGGTGGGCCATGATTGGGGTGCTCTTATTGCTTGGTACTTGTGCTTGTTTAGACCGGATAAGGTCAAAGCTTTGGTCAACTTGAGTGTTGCGTTTAATCCCTGGAACCCCAAGAGGAAGCCACTTGAGGGTTTGAAAGCTGTTTATGGTGACGATTATTACATGATCAGATTTCAGGAGCCTGGTGAGATAGAAGCTGAGTTTGCCCAGATTGGTACTGAGACAGTTGTCAAGGAATTCTTTACATACAGGACACCTGGTCCTCTTTTTCTCCCTACAGGTAAAGGATTTGGACATCCCCCAAATGCTGAAATTGTCTTACCCTCTTGGCTATCAGAGGATGATGTTAAAAACTACACCAGCAAATTTGAGAAAGGCTTTACAGGAGGAGTGAACTATTACCGTAATATAAACGTGAACTGGGAACTTACAGCTCCTTGGGCCGGGAGTCAAATAAAGGTTCCTGTTAAGTTCATCGTGGGTGACCTGGACCTGACATATTATATGCCAGGAGTCAAGGATTACATACACAAAGGTGGGTTCAAGCGAGATGTGCCATTATTGGAAGAAGTGATTGTAATGGAAGGTGTAGGTCACTTCATTAATGGAGAAAAGGCTGATGCAATCAGTGAGCACATATACAACTTTTTTCAGAAGTTCTGA
# modifications: cDNA
# notes: 957 bp polynucleotide encoding epoxide hydrolase 2, cloned in pBI121 plant expression vector, agroinfiltrated in mango
# What was measured:
# MiEH2 [1] = molecular target: T1, MiEH2; assay: MiEH2 activity assay and enzyme kinetics with epoxide substrates (HRMS); format: biochemical; conditions: for product formation by MiEH2 with substrate (HRMS extracted ion chromatogram): 200 μM substrate, pH 7.0, 30° C., FIG. 3; for Vmax: recombinant MiEH2, substrate kinetics
# Experimental: (§1) Similar activity assays were carried out with protein expressed from empty vector for confirmation of EH2 activity. Optimum pH was determined by calculating activity at varied range of pH in phosphate citrate buffer at 30° C., whereas temperature optima was determined by calculating MiEH2 activity in phosphate citrate buffer pH 7 at various temperatures. After incubation and catalytic activity of EH 2, products were extracted in chloroform:methanol (2:1); completely dried in vacuum evaporator and reconstituted in the methanol. HRMS analysis carried out by accurate mass (molecular ion) identification. […] Extracted compounds from CSO and TSO assay reactions were separated by water (A):methanol (B) solvent gradient, 0-1 min 80% (A)/20% (B); 1-2 min 60% (A)/40% (B); 2-4 min 40% (A)/60% (B); 4-11 min 20% (A)/80% (B); 11-16 min 0% (A)/100% (B), hold for 2 min and again back to 80% (A)/20% (B) in 3 min with 2 min hold at flow rate 500 μl min^−1. […] Quantitative analysis of CSO and TSO assay products was done by plotting standard graph of product standards. Full scans for both programs were acquired on positive ion mode with AGC target value of 1E6, resolution of 70,000 at scan range 100-500 m/z, and maximum ion injection time (IT) of 250 ms.
# [2] = substrate: c1ccc([C@H]2O[C@@H]2c2ccccc2)cc1; assay: as above; format: biochemical, Mangifera indica; conditions: other: recombinant MiEH2, substrate kinetics; pH 7.0
# Experimental: as §1
# [3] = substrate: c1ccc([C@H]2O[C@H]2c2ccccc2)cc1; assay: as above; format: biochemical, Mangifera indica; conditions: other: recombinant MiEH2, substrate kinetics; pH 7.0
# Experimental: as §1
# MiEH2 [4] = molecular target: T1, MiEH2; assay: Optimum pH and temperature of MiEH2 activity; format: biochemical
# Experimental: Similar activity assays were carried out with protein expressed from empty vector for confirmation of EH2 activity. Optimum pH was determined by calculating activity at varied range of pH in phosphate citrate buffer at 30° C., whereas temperature optima was determined by calculating MiEH2 activity in phosphate citrate buffer pH 7 at various temperatures. After incubation and catalytic activity of EH 2, products were extracted in chloroform:methanol (2:1); completely dried in vacuum evaporator and reconstituted in the methanol. HRMS analysis carried out by accurate mass (molecular ion) identification. Identified products from assay reaction were confirmed with mass and retention time indices of authentic standards R,R hydrobenzoin and meso hydro benzoin. Extracted compounds from CSO and TSO assay reactions were separated by water (A):methanol (B) solvent gradient, 0-1 min 80% (A)/20% (B); 1-2 min 60% (A)/40% (B); 2-4 min 40% (A)/60% (B); 4-11 min 20% (A)/80% (B); 11-16 min 0% (A)/100% (B), hold for 2 min and again back to 80% (A)/20% (B) in 3 min with 2 min hold at flow rate 500 μl min^−1. […] Quantitative analysis of CSO and TSO assay products was done by plotting standard graph of product standards. Full scans for both programs were acquired on positive ion mode with AGC target value of 1E6, resolution of 70,000 at scan range 100-500 m/z, and maximum ion injection time (IT) of 250 ms.
# [5] = tested on: ethylene treated mango fruits; assay: Transient over expression of SEQ ID No. 1 (MiEH2) in mango fruits via agroinfiltration, lactone content by GC-FID; format: in vivo, Mangifera indica
# Experimental: The full length sequence of MiEH2, i.e. SEQ ID No. 1 was cloned in a pBI121 plant expression vector between CaMV 35S promoter and GusA gene. Terminal primers were designed (Table 1A) to clone genes at BamHI restriction site. Resulted correct oriented construct pBI121+SEQ ID No. 1 and pBI121 empty vector as control were transformed in the Agrobacterium GV3101 strain for transient expression studies. Separate Agrobacterium cultures (5 mL) were initiated from individual colonies in YEB medium having appropriate antibiotics and incubated overnight at 28° C. This culture was transferred to 50 mL induction medium comprising 0.5% beef extract, 0.1% yeast extract, 0.5% peptone, 0.5% sucrose, 2 mM MgSO4, […] acetosyringone, 10 mM MES, pH 5.6, having appropriate antibiotics, and again grown overnight. Cultures were recovered by centrifugation on the next day, resuspended in infiltration medium (10 mM MgCl2, 10 mM MES, […] acetosyringone, pH 5.6) till optical density reached 1.0. This suspension was again incubated at 28° C. with gentle agitation for 2 hrs.
# Over expression studies for EH2 were carried out by Agrobacterium mediated infiltration in ethylene treated mango fruits at 3DAH stage by using hypodermic syringe. Equal volumes of said constructs i.e. pBI121+MiEH2 and pBI121 empty vector construct were used for infiltration in two different halves of same mango fruit separated by fruit stone. […] Thus control (empty vector) and test over expressions were carried out in same fruit to avoid error in lactone content analysis. Five distinct mango fruits were used for overexpression study of MiEH2. Infiltrated fruits were kept at 25° C. for 2 days in 12 hr dark and 12 hr light conditions, after 2 days; part from each fruit halves was checked by Gus staining (Kapila et al. 1997; Spolaore et al. 2001) to confirm expression of MiEH2 under 35S promoter along with GusA, remaining part of fruit pulp stored in −80° C. until used for lactone analysis by gas chromatography. […] Lactones were analysed from control and test region of fruits. A total of 8 lactones viz. γ-butyrolactone, δ-valerolactone, γ-hexalactone, δ-hexalactone, γ-octalactone, γ-octalactone, γ-decalactone and δ-decalactone were detected from all tissues in GC-MS analysis.
# GC-MSD and GC-FID analysis for lactones was carried out using a 7890B GC system Agilent Technologies coupled with Agilent 5977A MSD (Agilent technologies, CA, USA). […] To understand effect of gene over expression by transient expression on lactone biosynthesis, qualitative and quantitative analysis for lactones alone was carried out in the present study. […] Absolute quantification was done using internal standard by normalizing concentrations of all the lactones with that of known concentration of nonyl acetate.
# [6] = pBI121+SEQ ID No. 1 vs empty pBI121 vector in same fruit, 2 days post infiltration
molecule,measurement,setting,value
"c1ccc([C@H]2O[C@H]2c2ccccc2)cc1 [CSO, cis-stilbene oxide]",product formation by MiEH2 with substrate (HRMS extracted ion chromatogram),MiEH2 [1],product formation
same,Vmax,MiEH2 [1],CSO- 26.5252 ± 4.81 μM min^−1mg^−1
"c1ccc([C@H]2O[C@@H]2c2ccccc2)cc1 (relative stereo) [TSO, trans-stilbene oxide]",product formation by MiEH2 with substrate (HRMS extracted ion chromatogram),MiEH2 [1],product formation
same,Vmax,MiEH2 [1],TSO- 1055.55 ± 55.55 μM min^−1mg^−1
B1,Km,[2],TSO- 0.113 ± 0.003 mM
same,Km,[3],CSO- 0.165 ± 0.044 mM
B2,Optimum temperature,"MiEH2 [4]; phosphate citrate buffer pH 7, various temperatures",45 °C
same,Optimum pH,"MiEH2 [4]; phosphate citrate buffer, 30° C., varied pH",8
B3,lactone content on transient over expression,[5]; Alphonso mango,significant increase
same,increase in γ-hexalactone content compared to control tissue,[5]; [6],1.96 fold
same,increase in δ-hexalactone content compared to control tissue,[5]; [6],1.98 fold
same,increase in δ-valerolactone content compared to control tissue,[5]; [6],1.46 fold
